The record followed here is US20250076311A1 (Chugai, published 2025).

Changes are numbered by the printed parent chain. Names and notes keep the numbering of the source.

The chains are these.
T1: human FcγRIIaR extracellular domain, His-tagged (human, UniProt P12318 34-217)
T1 construct: also called human FcgRIIaR; FcγRIIa type R
T1 chain: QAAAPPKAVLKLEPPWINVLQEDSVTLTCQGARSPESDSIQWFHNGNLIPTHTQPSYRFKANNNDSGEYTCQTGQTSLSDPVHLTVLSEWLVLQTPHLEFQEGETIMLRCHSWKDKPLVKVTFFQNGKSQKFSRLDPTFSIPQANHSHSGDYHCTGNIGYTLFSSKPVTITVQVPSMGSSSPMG

T2: human FcγRIIaH extracellular domain, His-tagged (human, UniProt P12318 34-217)
T2 construct: also called human FcgRIIaH; FcγRIIa type H
T2 sequence: T1 chain with R134H

T3: human FcγRIIb extracellular domain, His-tagged (human, UniProt P31994 43-217)
T3 construct: also called human FcgRIIb
T3 sequence: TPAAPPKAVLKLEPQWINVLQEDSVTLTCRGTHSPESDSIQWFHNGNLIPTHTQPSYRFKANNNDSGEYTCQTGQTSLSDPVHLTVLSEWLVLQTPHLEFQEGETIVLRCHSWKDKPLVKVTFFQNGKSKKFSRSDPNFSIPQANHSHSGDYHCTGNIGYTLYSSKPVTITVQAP

T4: cynomolgus monkey FcγRIIa3 extracellular domain with C-terminal His-tag (cynomolgus monkey)
T4 construct: also called cyno FcgRIIa3; cynoFcγRIIa3; not shown: His-tag added to C-terminus
T4 chain: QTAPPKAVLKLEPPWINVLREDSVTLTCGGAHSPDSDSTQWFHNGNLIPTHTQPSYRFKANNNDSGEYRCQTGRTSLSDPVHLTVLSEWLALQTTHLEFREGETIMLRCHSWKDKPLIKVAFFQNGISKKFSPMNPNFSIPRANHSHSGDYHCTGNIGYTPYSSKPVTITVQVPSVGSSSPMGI

T5: human FcγRIIb extracellular domain with C-terminal His-tag (human, UniProt P31994 43-217)
T5 construct: also called human FcgRIIb; not shown: His-tag added to C-terminus
T5 sequence: T3 sequence

T6: human FcγRIIaR extracellular domain with C-terminal His-tag (human, UniProt P12318 34-217)
T6 construct: also called human FcgRIIaR; FcγRIIa (type R); not shown: His-tag added to C-terminus
T6 chain: T1 chain

T7: cynomolgus monkey FcγRIIb extracellular domain with C-terminal His-tag (cynomolgus monkey)
T7 construct: also called cyno FcgRIIb; cynoFcγRIIb; not shown: His-tag added to C-terminus
T7 chain: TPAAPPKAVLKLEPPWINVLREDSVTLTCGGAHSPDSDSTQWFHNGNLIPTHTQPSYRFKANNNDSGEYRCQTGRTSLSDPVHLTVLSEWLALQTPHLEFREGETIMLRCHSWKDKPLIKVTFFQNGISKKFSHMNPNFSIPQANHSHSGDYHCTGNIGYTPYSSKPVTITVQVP

T8: cynomolgus monkey FcγRIIa2 extracellular domain with C-terminal His-tag (cynomolgus monkey)
T8 construct: also called cyno FcgRIIa2; cynoFcγRIIa2; not shown: His-tag added to C-terminus
T8 chain: T4 chain with I127K, K130N, P133H, R142Q

T9: cynomolgus monkey FcγRIIa3 extracellular domain with C-terminal His-tag (cynomolgus monkey)
T9 construct: also called cyno FcgRIIa3; cynoFcγRIIa3
T9 chain: T4 chain

B1: GpH7-B3 N325L / GpL16-k0 (antibody, human IgG1, kappa)
heavy: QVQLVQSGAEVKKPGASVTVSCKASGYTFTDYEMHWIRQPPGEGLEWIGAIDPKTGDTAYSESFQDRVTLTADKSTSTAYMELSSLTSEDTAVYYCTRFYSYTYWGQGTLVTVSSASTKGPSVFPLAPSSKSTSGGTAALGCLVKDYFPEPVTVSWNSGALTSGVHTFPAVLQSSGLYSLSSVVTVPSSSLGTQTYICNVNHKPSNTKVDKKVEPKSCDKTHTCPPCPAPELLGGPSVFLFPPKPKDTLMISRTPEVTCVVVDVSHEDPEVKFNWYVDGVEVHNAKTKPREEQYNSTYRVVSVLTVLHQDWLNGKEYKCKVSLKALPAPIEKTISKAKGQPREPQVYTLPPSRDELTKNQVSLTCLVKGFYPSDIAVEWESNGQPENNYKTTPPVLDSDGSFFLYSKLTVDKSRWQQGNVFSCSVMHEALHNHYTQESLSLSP
light: DIVMTQSPLSLPVTPGEPASISCQASESLVHSNRNTYLHWYLQKPGQSPQLLIYKVSNRFSGVPDRFSGSGSGTDFTLKISRVEAEDVGVYYCSQNTHVPPTFGQGTKVEIERTVAAPSVFIFPPSDEQLKSGTASVVCLLNNFYPREAKVQWKVDNALQSGNSQESVTEQDSKDSTYSLSSTLTLSKADYEKHKVYACEVTHQGLSSPVTKSFNRGEC
notes: also called B3 variant N325L
B2: GpH7-B3 P238Q / GpL16-k0 (antibody, human IgG1, kappa)
heavy: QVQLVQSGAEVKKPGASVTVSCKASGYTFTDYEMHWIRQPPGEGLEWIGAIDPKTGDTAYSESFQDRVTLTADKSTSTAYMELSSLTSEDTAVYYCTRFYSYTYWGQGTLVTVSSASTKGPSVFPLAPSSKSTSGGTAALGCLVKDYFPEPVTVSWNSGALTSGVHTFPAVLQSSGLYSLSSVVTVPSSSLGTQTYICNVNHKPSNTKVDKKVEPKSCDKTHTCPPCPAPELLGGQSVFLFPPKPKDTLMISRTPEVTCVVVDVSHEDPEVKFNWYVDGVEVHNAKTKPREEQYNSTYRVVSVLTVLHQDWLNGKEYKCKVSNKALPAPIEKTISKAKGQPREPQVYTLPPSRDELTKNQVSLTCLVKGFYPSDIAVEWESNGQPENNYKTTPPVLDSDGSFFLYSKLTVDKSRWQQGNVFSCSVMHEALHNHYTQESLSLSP
light: B1 light
notes: also called B3 variant P238Q
B3: GpH7-B3 P238E / GpL16-k0 (antibody, human IgG1, kappa)
heavy: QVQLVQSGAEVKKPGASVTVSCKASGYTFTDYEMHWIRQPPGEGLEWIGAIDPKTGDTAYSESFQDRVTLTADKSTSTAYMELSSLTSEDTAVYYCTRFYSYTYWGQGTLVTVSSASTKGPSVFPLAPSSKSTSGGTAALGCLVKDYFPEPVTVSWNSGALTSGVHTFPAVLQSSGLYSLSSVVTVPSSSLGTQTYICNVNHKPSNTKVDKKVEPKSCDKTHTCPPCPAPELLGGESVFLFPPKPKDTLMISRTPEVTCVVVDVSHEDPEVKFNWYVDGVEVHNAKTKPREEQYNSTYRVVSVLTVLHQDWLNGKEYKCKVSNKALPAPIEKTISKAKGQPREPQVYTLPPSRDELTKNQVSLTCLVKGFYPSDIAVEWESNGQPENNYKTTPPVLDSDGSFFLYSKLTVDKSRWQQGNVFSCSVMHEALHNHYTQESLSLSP
light: B1 light
notes: also called B3 variant P238E
B4: GpH7-B3 N325E / GpL16-k0 (antibody, human IgG1, kappa)
heavy: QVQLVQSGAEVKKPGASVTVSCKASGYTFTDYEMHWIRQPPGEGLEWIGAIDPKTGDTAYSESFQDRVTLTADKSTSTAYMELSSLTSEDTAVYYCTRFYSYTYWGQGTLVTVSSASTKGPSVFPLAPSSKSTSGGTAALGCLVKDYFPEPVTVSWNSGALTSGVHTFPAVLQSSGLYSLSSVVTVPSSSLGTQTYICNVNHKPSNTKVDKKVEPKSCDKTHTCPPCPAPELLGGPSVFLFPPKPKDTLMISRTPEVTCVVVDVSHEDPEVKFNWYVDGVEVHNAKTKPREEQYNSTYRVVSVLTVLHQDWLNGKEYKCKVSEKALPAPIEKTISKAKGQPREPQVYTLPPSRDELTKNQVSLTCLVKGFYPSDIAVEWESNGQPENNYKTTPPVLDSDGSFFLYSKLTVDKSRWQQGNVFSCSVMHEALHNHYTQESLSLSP
light: B1 light
notes: also called B3 variant N325E
B5: GpH7-B3 G237D / GpL16-k0 (antibody, human IgG1, kappa)
heavy: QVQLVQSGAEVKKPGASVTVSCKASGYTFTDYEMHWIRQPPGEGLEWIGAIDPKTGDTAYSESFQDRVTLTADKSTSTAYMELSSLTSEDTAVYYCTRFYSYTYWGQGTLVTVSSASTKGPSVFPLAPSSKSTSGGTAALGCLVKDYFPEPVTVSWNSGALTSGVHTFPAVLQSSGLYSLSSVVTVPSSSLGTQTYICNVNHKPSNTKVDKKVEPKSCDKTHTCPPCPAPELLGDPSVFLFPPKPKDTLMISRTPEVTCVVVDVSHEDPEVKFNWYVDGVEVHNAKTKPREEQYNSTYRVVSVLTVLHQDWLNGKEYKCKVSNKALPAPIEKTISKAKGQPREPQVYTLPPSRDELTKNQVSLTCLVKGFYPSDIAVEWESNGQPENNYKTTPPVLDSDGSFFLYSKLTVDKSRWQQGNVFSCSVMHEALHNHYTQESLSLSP
light: B1 light
notes: also called B3 variant G237D
B6: GpH7-B3 G236N / GpL16-k0 (antibody, human IgG1, kappa)
heavy: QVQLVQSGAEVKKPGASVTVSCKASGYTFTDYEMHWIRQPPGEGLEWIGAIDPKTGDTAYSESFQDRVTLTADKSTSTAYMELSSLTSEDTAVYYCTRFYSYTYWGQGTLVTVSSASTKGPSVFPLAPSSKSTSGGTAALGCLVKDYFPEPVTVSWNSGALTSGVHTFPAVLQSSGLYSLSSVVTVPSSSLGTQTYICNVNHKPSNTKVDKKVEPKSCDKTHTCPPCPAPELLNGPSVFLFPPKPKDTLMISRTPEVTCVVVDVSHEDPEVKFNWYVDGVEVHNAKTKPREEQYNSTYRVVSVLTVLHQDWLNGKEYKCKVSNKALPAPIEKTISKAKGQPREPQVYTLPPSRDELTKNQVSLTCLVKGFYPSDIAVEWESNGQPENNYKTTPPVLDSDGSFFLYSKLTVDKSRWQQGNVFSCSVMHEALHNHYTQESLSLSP
light: B1 light
notes: also called B3 variant G236N
B7: GpH7-B3 A327I / GpL16-k0 (antibody, human IgG1, kappa)
heavy: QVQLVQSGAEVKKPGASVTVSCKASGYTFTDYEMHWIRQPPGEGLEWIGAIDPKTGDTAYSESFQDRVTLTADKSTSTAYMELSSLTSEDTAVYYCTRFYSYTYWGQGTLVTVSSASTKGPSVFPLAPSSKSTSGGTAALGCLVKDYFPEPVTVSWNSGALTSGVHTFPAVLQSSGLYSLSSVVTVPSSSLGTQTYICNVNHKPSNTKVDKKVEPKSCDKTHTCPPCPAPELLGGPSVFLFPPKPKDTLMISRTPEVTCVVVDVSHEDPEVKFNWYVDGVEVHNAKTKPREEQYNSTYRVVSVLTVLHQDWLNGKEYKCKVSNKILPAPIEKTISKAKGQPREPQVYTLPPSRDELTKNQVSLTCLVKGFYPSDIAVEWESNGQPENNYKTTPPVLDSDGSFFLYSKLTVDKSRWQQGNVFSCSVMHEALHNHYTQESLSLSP
light: B1 light
notes: also called B3 variant A327I
B8: M103205H795-MY168/M103202L889-SK1 (antibody, human IgG1, kappa, name in EU numbering)
heavy: QVTLKESGPVLVKPTETLTLTCTVSGIDLSHDDISWVRQAPGKGLEWVGIISYAGSTYYASWAKGRLTISKDTSKNQVVLTMTNMDPVDTATYYCARGVPAYSHGGDLWGQGTLVTVSSASTKGPSVFPLAPSSKSTSGGTAALGCLVKDYFPEPVTVSWNSGALTSGVHTFPAVLQSSGLYSLSSVVTVPSSSLGTQTYICNVNHKPSNTKVDKKVEPKSCDKTHTCPPCPAPELLNGPSVFLFPPKPKDTLMISRTPEVTCVVVDVSEEDPEVKFNWYVDGVEVHNAKTKPREEQYNSTYRVVSVLTVLHQDWLNGKEYKCKVSNKALPAPIEKTISKAKGQPREPQVYTLPPSREEMTKNQVSLTCLVKGFYPSDIAVEWESNGQPENNYKTTPAVLDSDGSFFLYSKLTVDKSRWQQGNVFSCSVMHEALHNHYTQKSLSLSP
light: DIVMTQSPATLSLSPGERATLSCTSSQSVYHANWLSWFQQKPGQPPKLLIYWASTLAYGVPSRFSGSGSGTDFTLTISSLQPEDAATYYCAGGYGGGRYAFGQGTKVEIKRTVAAPSVFIFPPSDEQLKSGTASVVCLLNNFYPREAKVQWKVDNALQSGNSQESVTEQDSKDSTYSLSSTLTLSKADYEKHKVYACEVTHQGLSSPVTKSFNRGEC
notes: EU numbering
B9: M103205H795-MY176/M103202L889-SK1 (antibody, human IgG1, kappa, name in EU numbering)
heavy: B8 heavy with A398L
light: B8 light
notes: EU numbering
B10: M103205H795-MY171/M103202L889-SK1 (antibody, human IgG1, kappa, name in EU numbering)
heavy: B8 heavy with A398F
light: B8 light
notes: EU numbering
B11: M103205H795-MY175/M103202L889-SK1 (antibody, human IgG1, kappa, name in EU numbering)
heavy: B8 heavy with A398K
light: B8 light
notes: EU numbering
B12: M103205H795-MY052/M103202L889-SK1 (antibody, human IgG1, kappa, name in EU numbering)
heavy: B8 heavy with A398M
light: B8 light
notes: substitutions in EU numbering, introduced into M103205H795-SG1
B13: M103205H795-MY468/M103202L889-SK1 (antibody)
chain 1: B8 heavy with A233N, N238T, E270D, A332K, A398P
chain 2: B8 light
B14: M103205H795-MY452/M103202L889-SK1 (antibody, human IgG1, kappa)
heavy: B8 heavy with P234Q, N238T, E270D, A332K, A398P
light: B8 light
notes: Substitutions in EU numbering on SG1

What is called Kd is the equilibrium constant for the complex coming apart.

For one test, the target named is T10, human FcγRIIIaV extracellular domain, His-tagged (human, UniProt P08637 17-208).
T10 construct: also called human FcgRIIIaV
T10 sequence (P08637 17-208 F176V): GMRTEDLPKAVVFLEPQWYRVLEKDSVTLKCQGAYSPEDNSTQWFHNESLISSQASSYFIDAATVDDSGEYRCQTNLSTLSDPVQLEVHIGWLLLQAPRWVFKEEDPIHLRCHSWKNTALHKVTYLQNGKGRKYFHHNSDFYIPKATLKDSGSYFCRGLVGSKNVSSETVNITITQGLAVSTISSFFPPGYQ
Kind of test: SPR (Biacore), 25C, FcgR bound per antibody captured. (Surface plasmon resonance follows binding to a sensor surface in real time, without labels.)
As to B1, the “Binding to human FcgRs (parent B3 = 100)” value worked out at 0.
Same read-out and setting: next, B2: -1.
The same measure, in the same setting: as for B3, the figure is 1; as for B4, 4.
For B5, the “Binding to human FcgRs (parent B3 = 100)” value amounted to 0.

The target in a further test is T1, human FcγRIIaR extracellular domain, …. The description is as above.
B6: the “Binding to human FcgRs (parent B3 = 100)” value worked out at 81.
On the same count and under the same terms, as for B7, the figure is 12.
Same read-out and setting: as for B1, the figure is 13.
B2: the “Binding to human FcgRs (parent B3 = 100)” value was 4.
B3: the “Binding to human FcgRs (parent B3 = 100)” value worked out at 2.
As for B4, the “Binding to human FcgRs (parent B3 = 100)” value was 13.
Same read-out and setting: as for B5, the figure is 0.

Another test has as its target T2, human FcγRIIaH extracellular domain, …. The description is as above.
Consider B6, for which the “Binding to human FcgRs (parent B3 = 100)” value is 54.
Still for that read-out and setting: next, B7: 37.
The same measure, in the same setting: as for B1, the figure is 93; as for B2, 19.
On the same count and under the same terms, next, B3: 21; B4: 49.
For the molecule B5, the “Binding to human FcgRs (parent B3 = 100)” value came to 74.

The target of another test is T3, human FcγRIIb extracellular domain, …. Described as above.
Consider B6, for which the “Binding to human FcgRs (parent B3 = 100)” value came out at 75.
Take B7: the “Binding to human FcgRs (parent B3 = 100)” value turned out to be 46.
Still for that read-out and setting: next, B2: 43; B4: 40; B5: 95.

For a further test, the target named is T4, cynomolgus monkey FcγRIIa3 …. Kind of test: SPR Biacore, antibody captured, FcgR analyte.
B8 displayed a Kd of 1000 nM.
Same read-out and setting: as for B9, the figure is 6000 nM.
Take B10: the “KD fold (SG1 = 1)” value was 1.5 fold and binding was characterised by a dissociation constant (Kd) of 9200 nM.
For the molecule B11, the “KD fold (SG1 = 1)” value was 2.3 fold.

The target of another test is T5, human FcγRIIb extracellular domain with …. As to the kind of experiment: SPR Biacore, antibody captured, FcgR analyte.
Regarding B9, the “KD fold (SG1 = 1)” value is 6.5 fold and the Kd stood at 700 nM.
With B10, the dissociation constant Kd was 1200 nM.

The next test deals with T6, human FcγRIIaR extracellular domain …. As to the kind of experiment: SPR Biacore, antibody captured, FcgR analyte.
Turning to B12, the “KD fold (SG1 = 1)” value was 0.1 fold.
In turn, B8 returned a Kd of 2800 nM.
As to B9, the “KD fold (SG1 = 1)” value turned out to be 0.1 fold.
For the molecule B10, the Kd turned out to be 2300 nM.
Still for that read-out and setting: as for B11, the figure is 1500 nM.

The next test deals with T7, cynomolgus monkey FcγRIIb extracellular …. Kind of test: SPR Biacore, antibody captured, FcgR analyte.
With B12, the “KD fold (SG1 = 1)” value is 3.5 fold.
B8 showed a dissociation constant Kd of 12 nM.
B9: the “KD fold (SG1 = 1)” value was determined as 1 fold.
Regarding B10, the “KD fold (SG1 = 1)” value turned out to be 1.5 fold and the affinity, expressed as Kd, was 9800 nM.

For another test, the target named is T11, cynomolgus monkey FcγRIIIaS extracellular domain with C-terminal His-tag (cynomolgus monkey, UniProt A3RFZ7 21-206 (rhesus entry)).
T11 construct: also called cyno FcgRIIIaS; cynoFcγRIIIaS; not shown: His-tag added to C-terminus
T11 sequence (A3RFZ7 21-206): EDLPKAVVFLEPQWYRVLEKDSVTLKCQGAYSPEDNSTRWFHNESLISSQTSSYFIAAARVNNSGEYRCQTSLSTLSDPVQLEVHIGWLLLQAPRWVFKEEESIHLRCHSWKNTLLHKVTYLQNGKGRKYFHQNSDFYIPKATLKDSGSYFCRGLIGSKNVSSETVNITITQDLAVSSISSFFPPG
As to the kind of experiment: SPR Biacore, antibody captured, FcgR analyte.
In the case of B12, the “KD fold (SG1 = 1)” value amounted to 0.24 fold and the Kd stood at 1500 nM.
On the same counts, the results for B8 are 0.08 fold and 4500 nM.
As for B9, the “KD fold (SG1 = 1)” value came out at 0.16 fold and the affinity, expressed as Kd, was 2200 nM.
The like results for B10 were, in that order, 0.11 fold and 3300 nM.
Regarding B11, the “KD fold (SG1 = 1)” value is 0.14 fold and binding was put at a Kd of 2600 nM.

A further test deals with T12, human FcγRIIIaV extracellular domain with C-terminal His-tag (human, UniProt P08637 17-208).
T12 construct: also called human FcgRIIIaV; not shown: His-tag added to C-terminus
T12 sequence (P08637 17-208 F176V): as the sequence (P08637 17-208 F176V) above
Kind of test: SPR Biacore, antibody captured, FcgR analyte.
B9 showed a Kd of 6200 nM.

Another test deals with T8, cynomolgus monkey FcγRIIa2 …. As to the kind of experiment: SPR Biacore, antibody captured, FcgR analyte.
The molecule B10 returned a dissociation constant Kd of 2300 nM.

For another test, the target named is T9, cynomolgus monkey FcγRIIa3 …. Kind of test: SPR (Biacore), KD of SG1 / KD of variant. On the procedure: The kinetic analysis of interactions between these antibodies and FcγR was carried out using BIACORE® T200 or BIACORE® 4000 (GE Healthcare). HBS-EP+ (GE Healthcare) was used as the running buffer, and the measurement temperature was set to 25° C. […] After the measurement, the antibody captured on the chip was washed off by allowing reaction with 10 mM glycine-HCl, pH1.5 and 25 mM NaOH so that the chip was regenerated and used repeatedly. The sensorgrams obtained as measurement results were analyzed by the 1:1 Langmuir binding model using the BIACORE® Evaluation Software to calculate the binding rate constant ka (L/mol/s) and dissociation rate constant kd (1/s), and the dissociation constant KD (mol/L) was calculated from these values. […] Regarding such interactions, KD values were calculated using the following 1:1 binding model described in BIACORE® T100 Software Handbook BR1006-48 Edition AE.
B13: the “KD fold (SG1 = 1)” value came to 3.5 fold.
On the same count and under the same terms, next, B14: 2.6 fold.
